T1: His-tagged human BCMA (Acro Biosystems, Cat. #BCA-H522y) (human, UniProt Q02223 1-54)
T1 construct: also called huBCMA; P1; not shown: His tag
T1 sequence: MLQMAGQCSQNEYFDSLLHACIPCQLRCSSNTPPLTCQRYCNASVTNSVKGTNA

T2: human BCMA expressed on cells (human, UniProt Q02223 1-184)
T2 construct: the cell line is named under assay; also called wildtype human BCMA
T2 sequence: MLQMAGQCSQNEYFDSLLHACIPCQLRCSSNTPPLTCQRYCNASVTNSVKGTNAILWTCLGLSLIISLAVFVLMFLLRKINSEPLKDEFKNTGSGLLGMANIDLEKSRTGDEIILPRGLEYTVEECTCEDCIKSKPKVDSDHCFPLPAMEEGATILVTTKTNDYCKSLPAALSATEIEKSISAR

T3: His-tagged mouse BCMA (Acro Biosystems, BCA-M52H3) (mouse, UniProt O88472 1-49)
T3 construct: Bought protein; not shown: His tag
T3 chain: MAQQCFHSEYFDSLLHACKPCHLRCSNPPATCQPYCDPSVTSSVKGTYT

B1: 539-SP5-D7 (antibody produced by the hybridoma) (antibody, V domains shown)
VH: EVMLVDSGGNLVKPGGSLKLSCAASGFTFSNYVISWVRQTPEKRLEWVATISTVGTNTYYPDSVRGRFTISRDNAENTLYLQMSSLRSEDTAIYYCSRHKYGYDDPSYAMDYWGQGTSVTVSS
VL: QLVLTQSSSASFSLGASAKLTCTLSSQHSTYTIEWYQQQPLKPPKYVMELKKDGSHSTGDGIPDRFSGSSSGADRYLSISNIQAEDEAIYICGVGDTVKEQFVYVFGGGTKVTVL
notes: Mouse antibody from B cell hybridoma (culture supernatant or IgG purified from it)
B2: 552-LN2-E6 (antibody produced by the hybridoma) (antibody, V domains shown)
VH: QIQLVQSGPELKKPGETVKISCMASGYTFTDYSVRWVKQAPGKGLEWMGWINTETGEPTYADDFKGRFAFSLETSASTAYLQINNLKNEDTATYFCAISYYYALDYWGHGTSVTVSS
VL: DIVLTQSPASLTVSLGQRATISCRASKSVSTSVYSFLHWYQQKPGQPPKLLIYLASNLESGVPARFSGSGSGTDFTLNIHPVEEEDAATYYCQHSRELPRTFGGGTKLEIK
notes: as for B1
B3: 552-LN1-E9 (antibody produced by the hybridoma) (antibody, V domains shown)
VH: QIQLVQSGPELKKPGETVKISCKASGYTFTDYSIYWVKQAPGKGLKWMGWINTETGEPTYADDFKGRFAFSLETSASSAYLQINTLKNEDTATYFCSISYYYAMDYWGQGTSVTVSS
VL: DIVLTQSPASLAVSLGQRATISCRASKSVSTSGYSFLHWYQQKPGQPPKLLIYFASNLESGVPARFSGSGSGTDFTLNIHPVEEEDAATYYCQHSRELPRTFGGGTKLEIK
notes: as for B1
B4: 552-LN1-F4 (antibody produced by the hybridoma) (antibody, V domains shown)
VH: QIQLVQSGPELKKPGETVKISCMASGYTFTDYSVRWVKQAPGKGLEWMGWINTETGEPTYAHDFKGRFAFSLETSASTAYLQINNLKDEDTSTYFCAISYYYALDYWGHGTSVTVSS
VL: DIVLTQSPASLTVSLGQRATISCRASKSVSTSGYNFLHWYQQKPGQPPKLLIYLASNLESGAPARFSGSGSGTDFTLNIHPVEEEDAATYYCQHSRELPRTFGGGTKLEIK
notes: as for B1
B5: 552-LN2-F8 (antibody produced by the hybridoma) (antibody, V domains shown)
VH: QIQLVQSGPELKKPGETVKISCKASGYTFTDYTMYWVKQAPGKGLKWMGWINTETGEPTYADDFKGRFVFSLETSANTAYLQINNLKNEDTATYFCAISYYYGMDYWGQGTSVTVTS
VL: DIILTQSPASLAVSLGQRATITCRASKSVSTSGYNFVYWYQQKPGQPPKLLIYLASNLESGVPARFSGSGSGTDFTLNIHPVEEEDAATYYCQHSRELPRTFGGGTKLEIK
notes: as for B1
B6: 539-SP2-H3 (antibody produced by the hybridoma) (antibody, V domains shown)
VH: EVQLQQSGPELVKPGASVKMSCKASGYTFTSYVIHWVKQKPGQGLEWIGYVLPYNDVIKYNEKFKGKATLTSDKSSSTAYMDLSSLTSEDSAVYYCARWGDFDEGIWFPYWGQGTLVTVSA
VL: DVLMTQTPLSLPVSLGDHASVSCRSSQSIVHTDGNTYLEWYLQKPGQSPKLLIYKVSNRFSGVPDRFSGSGSGTDFTLKISRVEAEDLGVYYCFQGSHVPWTFGGGTKLEIK
notes: as for B1

How the values were obtained:
[1] = target: T1, His-tagged human BCMA (Acro Biosystems, …); test: ELISA, hybridoma supernatant, coated His-tagged antigen; note: test concentration or dose not given here
[2] = target: T4, His-tagged cynomolgous macaque BCMA (Acro Biosystems, BCA-C52H7) (cynomolgus macaque, UniProt Q02223 1-54 (human entry)); test: as above
T4 construct: Bought protein; also called cyno BCMA; CyBCMA; not shown: His tag

[3] = target: T1, His-tagged human BCMA (Acro Biosystems, …); test: ELISA, IgG purified from hybridoma supernatant, coated His-tagged antigen
[4] = target: T2, human BCMA expressed on cells; test: flow cytometry, hybridoma supernatant, HEK293T cells stably expressing human BCMA
[5] = target: T3, His-tagged mouse BCMA (Acro Biosystems, …); test: ELISA, hybridoma supernatant, coated His-tagged antigen; note: test concentration or dose not given here

Row | Binder | ELISA values (OD 450 nm) [1] [OD] | ELISA values (OD 450 nm) [2] [OD] | EC50 [3] [µg/mL] | % Parent (percent positive cells) [4] [%] | ELISA values (OD 450 nm) [5] [OD]
1 | B1 | 0.817 | 0.252 | 0.0335 | 76.2 | 
2 | B2 | 0.832 | 0.729 | 0.0505 | 60.8 | 0.002
3 | B3 | 0.836 | 2.07 | 0.071 | 75.4 | 0.017
4 | B4 | 0.845 | 1.89 | 0.037 | 66.4 | 0.006
5 | B5 | 0.884 | 1.83 | 0.0585 | 73.8 | 0.001
6 | B6 | 0.813 | 0.669 | 0.152 | 74.3 | 0.542

— patent publication US20230374147A1 (HUMMINGBIRD BIOSCIENCE PTE, published 2023)
